Test results reported in patent US20250179143A1, “SYSTEMS AND METHODS FOR CHAPERONE-MEDIATED LIGAND EXCHANGE ON MHC-I AND MHC-RELATED MOLECULES USING CHICKEN TAPBPR” (priority 2022, published 2025).

Tests used:
1G4 TCR [1] = test: flow cytometry; PE tetramer (1 µg/mL) on human T cells transduced with the 1G4 TCR; tetramer from TAPBPR-catalysed peptide exchange; no percent sign printed
1G4 TCR [2] = test: flow cytometry; PE tetramer (1 µg/mL) on human T cells transduced with the 1G4 TCR; tetramer from conventional refolding; no percent sign printed
1G4 TCR [3] = test: flow cytometry; PE tetramer (1 µg/mL) on human T cells transduced with the 1G4 TCR; negative control; no percent sign printed
[4] = biological target: HLA-A*24:02/hb2m/VYGJVRACL (peptide-loaded) (human); test: SPR; HLA-A*24:02/[..], 0.1 to 10 µM, over chicken TAPBPR-biotin on a streptavidin chip; kinetic fit
[5] = biological target: HLA-A*24:02/hb2m/VYGJVRACL (peptide-loaded) (human); test: SPR, TAPBPR-biotin on streptavidin chip, peptide-loaded HLA as analyte
[6] = biological target: HLA-A*29:02/hb2m/VFAQVKQJY (peptide-loaded) (human); test: as above
[7] = biological target: peptide-deficient (empty) HLA-B*08:01/hb2m (human) (UniProt P01889); test: SPR, TAPBPR-biotin on streptavidin chip, UV-irradiated (empty) HLA as analyte
[8] = biological target: peptide-deficient (empty) HLA-B*37:01/hb2m (human); test: as above
[9] = biological target: peptide-deficient (empty) HLA-A*11:01/hb2m (human); test: as above
[10] = biological target: peptide-deficient (empty) HLA-A*24:02/hb2m (human); test: as above
[11] = biological target: peptide-deficient (empty) HLA-A*68:02/hb2m (human); test: as above
[12] = biological target: peptide-deficient (empty) HLA-G*01:01/hb2m (human); test: as above
[13] = biological target: peptide-deficient (empty) HLA-A*30:01/hb2m (human); test: as above
[14] = biological target: peptide-deficient (empty) HLA-A*02:01/hb2m (human); test: as above
[15] = biological target: peptide-deficient (empty) HLA-A*01:01/hb2m (human); test: as above
[16] = biological target: peptide-deficient (empty) HLA-A*29:02/hb2m (human); test: as above
[17] = biological target: HLA-A*01:01/hb2m/STAPGJLEY (peptide-loaded) (human); test: cell-based or functional assay
[18] = biological target: MR1 C262S loaded with acetyl-6-formylpterin (Ac-6-FP) (UniProt Q95460); test: SPR, TAPBPR-biotin on streptavidin chip, Ac-6-FP loaded MR1 C262S as analyte
[19] = biological target: HLA-B*08:01/hb2m/FLRGRAJGL (peptide-loaded) (human)
[20] = biological target: HLA-F*01:01/hb2m/LILRWE(bF)D (human); test: SPR; HLA-F*01:01/hb2m/LILRWE(bF)D, 0.0625 to 2 µM, over chTAPBPR-biotin on a streptavidin chip; kinetic fit
[21] = biological target: MR1 C262S loaded with acetyl-6-formylpterin (Ac-6-FP) (UniProt Q95460); test: SPR; MR1 C262S/Ac-6-FP, 10 to 100 µM, over hTAPBPR^KRQ-biotin on a streptavidin chip; steady-state fit in the inset
[22] = biological target: MR1 C262S loaded with acetyl-6-formylpterin (Ac-6-FP) (UniProt Q95460); test: SPR; MR1 C262S/Ac-6-FP, 10 to 100 µM, over hTAPBPR^RQ-biotin on a streptavidin chip; steady-state fit in the inset

## Exchanged A2/M4A (NY-ESO-1) (from UniProt A*02:01) (peptide-MHC)
1G4 TCR [1]
  tet+ (share of events in the tetramer-positive live gate): 38.7

## Exchanged A2/W5A (NY-ESO-1) (from UniProt A*02:01) (peptide-MHC)
1G4 TCR [1]
  tet+ (share of events in the tetramer-positive live gate): 2.18

## Exchanged S1A (NY-ESO-1) (from UniProt A*02:01) (peptide-MHC)
1G4 TCR [1]
  tet+ (share of events in the tetramer-positive live gate): 72.1

## NY-ESO-1 (HLA-A*02:01/… tetramer) (peptide-MHC)
1G4 TCR [1]
  tet+ (share of events in the tetramer-positive live gate): 71.4
1G4 TCR [2]
  tet+ (share of events in the tetramer-positive live gate): 78.7

## Refolded Rubella (from UniProt A*02:01) (peptide-MHC)
1G4 TCR [3]
  tet+ (share of events in the tetramer-positive live gate): 0.75

## chicken TAPBPR luminal domain (chTAPBPR)
[4]
  Kd: 370 nM
[5]
  Kd: 17400 nM
[6]
  Kd: 170 nM
[7]
  Kd: 1890 nM
[8]
  Kd: 2190 nM
[9]
  Kd: 910 nM
[10]
  Kd: 1680 nM
[11]
  Kd: 430 nM
[12]
  Kd: 11200 nM
[13]
  Kd: 1280 nM
[14]
  Kd: 2960 nM
[15]
  Kd: 1460 nM
[16]
  Kd: 290 nM
[17]
  kapp of fluorescent peptide binding at 5 uM chaperone (FP): 0.00017 s⁻¹
[18]
  Kd: 19200 nM
[19]
  -TΔS: -11.5 kcal/mol
  ΔG: -4.5 kcal/mol
  ΔH: 7 kcal/mol
[20]
  Kd: 760 nM

## hTAPBPR^KRQ (R105K, K211R, R270Q) (from UniProt Q9BX59 22-405)
[21]
  Kd: 62000 nM

## hTAPBPR^RQ (K211R, R270Q) (from UniProt Q9BX59 22-405)
[22]
  Kd: 49500 nM

## human TAPBPR luminal domain (hTAPBPR) (from UniProt Q9BX59 22-405)
[18]
  Kd: 98700 nM
